From patent US8110672B2, “Promoter engineering and genetic control” (priority 2005, dated 2012) come the findings set out here.

In one data set the test system is gfp transcript. Kind of data set: Transcriptional analysis: quantitative RT-PCR of the gfp transcript. Format: cell-based, E. coli. To be noted: cultures grown 3 hours, relative level. The method, then:
Cultures inoculated as previously were grown for 3 hours and the total RNA was extracted from a 1.5 mL sample with a commercial kit (RNEasy, Qiagen Corp). All samples were diluted to a final concentration of 20 μg/mL and stored at −20° C. A commercial kit for RT-PCR (iScript One-Step RT-PCR Kit with SYBR Green, Bio-Rad) was used with a CCD-equipped thermal cycler (iCycler, Bio-Rad) for RT-PCR of the gfp transcript. Primers (sense-[…] (SEQ ID NO: 4) and antisense-[…] (SEQ ID NO: 5)) were used at a final concentration of 100 nM and 20 ng of RNA was used as template in each 50 μL reaction. We performed duplicate cultures for each clone and duplicate extractions for each culture. The threshold cycles for each sample were calculated from the fluorescence data with proprietary software (Bio-Rad, Inc).
To characterize the promoter library directly at the transcriptional level, the relative mRNA levels of gfp transcripts in the above cultures were determined by quantitative RT-PCR. The high correlation between fluorescence and mRNA level (FIG. 4) confirmed that expression was transcriptionally controlled. The data was obtained where GFP fluorescence levels were modulated by the level of oxygen. In this way, selection for promoters, which had differential expression in high and low oxygen conditions was accomplished.

The next data set has as its system CAT. The experiment in a line: Chloramphenicol resistance of pZE-promoter-cat constructs (MIC on LB agar). Format: cell-based, E. coli. The settings on record: lowest chloramphenicol concentration that inhibited growth; promoter driving cat, LB agar with kanamycin, overnight 37° C. How it is done: pZE-promoter-cat plasmids were created by PCR of the CAT gene from pACYC184 using primers CAT_Sense_MluI: […] (SEQ ID NO: 6) and CAT_Anti_KpnI: […] (SEQ ID NO: 7) and ligated into the proper pZE-promoter construct which was previously digested by KpnI and MluI. Exponential-phase cultures grown in LB supplemented with kanamycin were plated onto LB agar supplemented with kanamycin and various concentrations of chloramphenicol ranging from 0 to 500 μg/ml. After overnight incubation at 37° C., the lowest concentration of chloramphenicol that inhibited the growth of a clone was recorded.
To verify the constitutive nature of all the promoters, each was redeployed into a new construct driving the reporter gene cat. Cultures bearing these constructs were assayed for resistance to chloramphenicol on a rich, solid-phase medium. […] Moreover, these conditions test the promoter library in contrasting medium and growth environments (liquid minimal medium vs. solid complex medium) further underscoring the constitutive nature of the library promoters.

B1: PLTetO1: PLteto-1 promoter, sequence SEQ ID NO: 34, relative to which the mutated promoters are defined (nucleic acid)
DNA: CAATTCCGACGTCTAAGAAACCATTATTATCATGACATTAACCTATAAAAATAGGCGTATCACGAGGCCCTTTCGTCTTCACCTCGAGTCCCTATCAGTGATAGAGATTGACATCCCTATCAGTGATAGAGATACTGAGCACATCAGCAGGACGCACTGACC
modifications: mutant sequence of bacteriophage lambda tetO promoter
As for B1, the “Relative mRNA” value with gfp transcript is 1. The “Cm MIC” value with CAT stood at 338 µg/mL. Further, in the data set on gfp (P from Equation 1, pZE-promoter-gfp(ASV) plasmid, M9G/CAA medium, exponential phase, duplicate cultures), the “Promoter Strength” value was 145,806.85 relative fluorescence units per absorbance unit per hour. The “Average Promoter Metric” value in the data set on gfp (average of the scaled mRNA and fluorescence data) was found to be 0.8685.
